Measurements published in patent US6849601B1 (priority 1998, dated 2005).
Positions of bridges follow the written chain, without caps; N, C: chain ends. Residues, ends and D or L forms follow the SMILES beside them.

T1: hamster α1B-adrenoceptor (hamster), P18841
T1 chain: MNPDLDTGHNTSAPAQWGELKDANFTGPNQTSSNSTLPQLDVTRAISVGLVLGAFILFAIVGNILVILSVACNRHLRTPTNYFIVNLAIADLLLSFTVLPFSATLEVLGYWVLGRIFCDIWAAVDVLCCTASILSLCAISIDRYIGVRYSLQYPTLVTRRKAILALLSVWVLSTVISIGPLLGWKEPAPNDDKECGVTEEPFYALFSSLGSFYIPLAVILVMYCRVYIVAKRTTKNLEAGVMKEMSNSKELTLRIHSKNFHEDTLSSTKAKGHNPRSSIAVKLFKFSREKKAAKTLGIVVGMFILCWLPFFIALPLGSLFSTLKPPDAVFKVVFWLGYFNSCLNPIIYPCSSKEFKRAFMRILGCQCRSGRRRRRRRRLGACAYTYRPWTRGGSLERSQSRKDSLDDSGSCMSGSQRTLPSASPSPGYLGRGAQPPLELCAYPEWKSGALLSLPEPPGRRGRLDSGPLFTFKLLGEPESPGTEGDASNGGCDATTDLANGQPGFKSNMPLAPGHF

T2: rat α1A-adrenoceptor (rat), P43140
T2 chain: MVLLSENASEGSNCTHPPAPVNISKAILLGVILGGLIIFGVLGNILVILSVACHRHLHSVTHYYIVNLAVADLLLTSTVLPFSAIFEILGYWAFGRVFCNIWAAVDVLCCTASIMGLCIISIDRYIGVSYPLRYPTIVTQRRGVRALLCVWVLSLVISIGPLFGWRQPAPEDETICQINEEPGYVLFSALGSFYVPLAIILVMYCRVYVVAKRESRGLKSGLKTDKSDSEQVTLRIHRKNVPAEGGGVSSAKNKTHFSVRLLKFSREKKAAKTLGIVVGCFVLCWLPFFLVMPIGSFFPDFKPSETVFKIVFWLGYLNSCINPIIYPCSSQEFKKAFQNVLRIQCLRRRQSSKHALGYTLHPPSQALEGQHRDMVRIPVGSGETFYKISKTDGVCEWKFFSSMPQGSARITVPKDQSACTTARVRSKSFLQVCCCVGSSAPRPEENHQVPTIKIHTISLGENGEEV

T3: rat α1D-adrenoceptor (rat), P23944
T3 chain: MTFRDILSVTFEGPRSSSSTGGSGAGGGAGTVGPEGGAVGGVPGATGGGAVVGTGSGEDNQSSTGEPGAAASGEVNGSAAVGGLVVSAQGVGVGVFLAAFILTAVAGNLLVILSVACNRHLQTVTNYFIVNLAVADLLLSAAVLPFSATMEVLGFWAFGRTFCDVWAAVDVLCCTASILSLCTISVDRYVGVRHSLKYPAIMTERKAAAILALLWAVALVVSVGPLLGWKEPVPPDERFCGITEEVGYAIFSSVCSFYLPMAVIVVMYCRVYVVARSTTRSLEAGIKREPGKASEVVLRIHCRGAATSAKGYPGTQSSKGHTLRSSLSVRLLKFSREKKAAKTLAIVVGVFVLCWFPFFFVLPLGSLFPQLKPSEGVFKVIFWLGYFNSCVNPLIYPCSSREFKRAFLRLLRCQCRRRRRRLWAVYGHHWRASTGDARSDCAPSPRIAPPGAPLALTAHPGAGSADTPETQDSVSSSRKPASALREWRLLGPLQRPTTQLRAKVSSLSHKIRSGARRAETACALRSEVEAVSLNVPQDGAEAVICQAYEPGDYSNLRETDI


Assays:
[1] = system: bisected rat prostatic vas deferens
[2] = molecular target: T1, hamster α1B-adrenoceptor (hamster), …
[3] = molecular target: T2, rat α1A-adrenoceptor (rat), P43140
[4] = molecular target: T3, rat α1D-adrenoceptor (rat), P23944
[5] = molecular target: T1, hamster α1B-adrenoceptor (hamster), …

| Molecule | IC50 [1] [nM] | -log Ki [2] | -log Ki [3] | -log Ki [4] | Ki [5] [nM] |
| --- | --- | --- | --- | --- | --- |
| CC[C@H](C)[C@@H]1NC(=O)[C@H](CC(C)C)NC(=O)[C@@H]2CSSC[C@@H](C(N)=O)NC(=O)[C@H](Cc3ccccc3)NC(=O)[C@H](CCCCN)NC(=O)[C@H](CCCCN)NC(=O)[C@H](Cc3c[nH]cn3)NC(=O)[C@H](CC(N)=O)NC(=O)[C@H](CCCNC(=N)N)NC(=O)[C@H](CCCNC(=N)N)NC(=O)[C@H](CSSC[C@H](NC(=O)[C@H](CCCNC(=N)N)NC(=O)[C@H](Cc3c[nH]c4ccccc34)NC(=O)[C@H](CC(N)=O)NC(=O)[C@@H](N)Cc3ccccc3)C(=O)N2)NC(=O)[C@H](C)NC(=O)[C@@H]2CCCN2C1=O [ρ-TIA, FNWRCCLIPACRRNHKKFC] (H-FNWRCCLIPACRRNHKKFC-NH2; disulfide 5-11, 6-19) | ~300 |  |  |  |  |
| FNWRCCLIPACRRNHKKFC (modifications not checked) [ρ-TIA] |  | 7.7 | 7.29 | 7.09 | 20 |
